Among the data in the supplement of paper PMC10598134 are collision cross section values, retold here.

± gives the standard deviation.

The data set can be described thus: collision cross section of modified peptide (TIMS, N2, iRT-aligned); higher = larger / more extended gas-phase ion. In a few lines:
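Values are averages of 1–3 technical replicates of the most abundant feature for each charge state. Collision cross section was obtained from the Mason-Schamp equation after 1/K0 calibration with three reference ions and run-wise alignment to the median iRT peptide deviation. Synthetic peptide pools (iRT standard spiked 1:40) were separated on a 120-min nanoflow C18 gradient at 60 °C, analysed on a timsTOF Pro/HT (dda-PASEF, nitrogen, ~2.4 mbar) and identified with MaxQuant.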

[1] abbreviates: charge state: 2, modification: Dimethyl (K).
Where [2] appears, read: charge state: 3, modification: Dimethyl (K).
Where [3] appears, read: charge state: 2, modification: hydroxyisobutyryl.
[4] abbreviates: charge state: 3, modification: hydroxyisobutyryl.
Where [5] appears, read: charge state: 3, modification: Glutarylation.
Where [6] appears, read: charge state: 2, modification: GlyGly (K).
The mark [7] stands for this setting: charge state: 3, modification: GlyGly (K).
Setting [8] is: charge state: 2, modification: Succinyl.
Where [9] appears, read: charge state: 2, modification: Malonyl.
Setting [10] is: charge state: 3, modification: Malonyl.
Setting [11] is: charge state: 2, modification: Methyl (K).
[12] abbreviates: charge state: 3, modification: Methyl (K).
[13] abbreviates: charge state: 2, modification: Nitro (Y).
[14] abbreviates: charge state: 2, modification: Acetyl (K).
[15] abbreviates: charge state: 2, modification: Glutarylation.
Where [16] appears, read: charge state: 3, modification: Biotin.
Setting [17] is: charge state: 2, modification: Butyryl.
[18] abbreviates: charge state: 3, modification: Methyl (R).
Setting [19] is: charge state: 2, modification: Formyl.
The mark [20] stands for this setting: charge state: 3, modification: Acetyl (K).
The mark [21] stands for this setting: charge state: 3, modification: Trimethyl (K).

In the case of “DLGKFQVATDALK [_DLGK(Dimethyl (K))FQVATDALK_]”, the collision cross section is, setting by setting: under setting [1], 400.58 ± 0.77 Å²; under setting [2], 478.59 ± 14 Å². “DDSFLGKLGGTLAR [_DDSFLGK(hydroxyisobutyryl)LGGTLAR_]” showed a collision cross section under setting [3] of 418.74 ± 0.55 Å² and a collision cross section under setting [4] of 495.38 ± 2.8 Å². “IVEKYGYTHLSAGELLR [_IVEK(Gluratylation)YGYTHLSAGELLR_]” yielded a collision cross section under setting [5] of 567.6 ± 0.21 Å².

For the sequence VETTVTSLKTK [_VETTVTSLK(GlyGly (K))TK_], the collision cross section runs as follows: under setting [6], 391.21 ± 2 Å²; under setting [7], 459.77 ± 2 Å². In turn, SFEDIHQYR [_SFEDIHQY(Phospho (Y))R_] displayed a collision cross section (charge state: 2, modification: Phospho (Y)) of 367.21 ± 0.78 Å². For “PSVGSQSNQAGQGKR [_PSVGSQSNQAGQGK(Succinyl)R_]”, the collision cross section under setting [8] was determined as 415.39 ± 2 Å² and the collision cross section (charge state: 3, modification: Succinyl) was 455.72 ± 2.4 Å².

Consider “DAEAAEATAEGALKAEK [_DAEAAEATAEGALK(Malonyl)AEK_]”, for which the collision cross section runs as follows: under setting [9], 425.91 ± 1 Å²; under setting [10], 541.5 Å².

As for “AAINQKLIETGER [_AAINQK(Crotonyl)LIETGER_]”, the collision cross section (charge state: 2, modification: Crotonyl) was determined as 409.27 ± 0.81 Å². Turning to “ITLSKHQNVQLPR [_ITLSK(Dimethyl (K))HQNVQLPR_]”, the collision cross section under setting [2] came out at 489.75 ± 1.2 Å². Regarding “DKALPLEAEVAPVK [_DK(hydroxyisobutyryl)ALPLEAEVAPVK_]”, the collision cross section under setting [3] is reported as 422.26 ± 0.83 Å². “AGPNASIISLKSDK [_AGPNASIISLK(Methyl (K))SDK_]”: the collision cross section is reported as 413.97 ± 1.5 Å² under setting [11] and 479.63 ± 3.4 Å² under setting [12]. Turning to FHYQDQEFLK [_FHY(Nitro (Y))QDQEFLK_], the collision cross section is, setting by setting: under setting [13], 402.47 ± 0.18 Å²; (charge state: 3, modification: Nitro (Y)) 452.15 ± 1.1 Å².

Take “VDIDVPDVNIEGPDAKLK [_VDIDVPDVNIEGPDAK(Acetyl (K))LK_]”: the collision cross section under setting [14] is 477.46 ± 4.2 Å². Take “INNFSADIKDSK [_INNFSADIK(hydroxyisobutyryl)DSK_]”: the collision cross section reads like this: under setting [3], 408.19 ± 0.53 Å²; under setting [4], 466.44 ± 1.1 Å².

With ALLQAKASGK [_ALLQAK(Dimethyl (K))ASGK_], the collision cross section under setting [1] was determined as 351.53 ± 0.51 Å². For “LQDVSGQLSSSKK [_LQDVSGQLSSSK(Gluratylation)K_]”, the collision cross section is recorded as 404.29 ± 0.99 Å² under setting [15] and 482.96 ± 1.3 Å² under setting [5].

For the sequence LLEEEDSKLK [_LLEEEDSK(Malonyl)LK_], the collision cross section under setting [9] is listed as 379.46 ± 1.1 Å². Take SKHLQEQLNELK [_SK(Biotin)HLQEQLNELK_]: under setting [16], the collision cross section is on record as 520.89 Å². Regarding “IVSGKDYNVTANSK [_IVSGK(Butyryl)DYNVTANSK_]”, the collision cross section under setting [17] is on record as 419.09 ± 2.9 Å². Under setting [18], “GIGRGTVQALHATGAR [_GIGR(Methyl (R))GTVQALHATGAR_]” had a collision cross section of 502.48 ± 1.9 Å².

Sequence DLGKFQVATDALK [_DLGK(Formyl)FQVATDALK_] returned a collision cross section under setting [19] of 403.92 ± 0.55 Å². For the sequence “DYSSGFGGKYGVQADR [_DYSSGFGGK(Succinyl)YGVQADR_]”, under setting [8], the collision cross section is reported as 438.99 ± 0.83 Å². As for “GFCFITYTDEEPVKK [_GFCFITYTDEEPVK(GlyGly (K))K_]”, the collision cross section is reported as 487.35 ± 2.6 Å² under setting [6] and 525.77 Å² under setting [7]. In the case of “HTLLRAPAPELLPANVAGR [_HTLLR(Methyl (R))APAPELLPANVAGR_]”, the collision cross section under setting [18] turned out to be 530.63 ± 1.2 Å². In the case of “SSGPGGQNVNKVNSK [_SSGPGGQNVNK(Methyl (K))VNSK_]”, the collision cross section is on record as 397.83 ± 2.2 Å² under setting [11] and 442.38 ± 4.2 Å² under setting [12]. In the case of “LQEKVESAQSEQK [_LQEK(GlyGly (K))VESAQSEQK_]”, the collision cross section is, setting by setting: under setting [6], 427.55 ± 1.4 Å²; under setting [7], 508.34 ± 0.87 Å². Take “DSSPTTNSKLSALQR [_DSSPTTNSK(Biotin)LSALQR_]”: the collision cross section is, setting by setting: (charge state: 2, modification: Biotin) 447.16 ± 2.3 Å²; under setting [16], 519.36 ± 0.34 Å². Under setting [14], ITGKNQVTATK [_ITGK(Acetyl (K))NQVTATK_] showed a collision cross section of 365.02 ± 0.94 Å². Turning to “VTLEVGKVIQQGR [_VTLEVGK(Malonyl)VIQQGR_]”, the collision cross section is, setting by setting: under setting [9], 413.16 ± 1.2 Å²; under setting [10], 480.87 ± 1.8 Å². For the sequence “GAEKTEVAEPR [_GAEK(hydroxyisobutyryl)TEVAEPR_]”, under setting [3], the collision cross section worked out at 376.1 ± 9 Å². On to IGNSYFKEEK [_IGNSYFK(Succinyl)EEK_], for which the collision cross section under setting [8] is 382.2 ± 0.76 Å².

As for “LQEKVESAQSEQK [_LQEK(Gluratylation)VESAQSEQK_]”, the collision cross section by setting is: under setting [15], 421.97 ± 0.48 Å²; under setting [5], 507.02 ± 1 Å². For the sequence “GLATFPSRGAK [_GLATFPSR(Citrullination (R))GAK_]”, the collision cross section (charge state: 2, modification: Citrullination (R)) is given as 353.86 ± 0.53 Å². “FLQEFYQDDELGKK [_FLQEFYQDDELGK(Succinyl)K_]” showed a collision cross section under setting [8] of 450.32 ± 0.96 Å². Sequence “SNEEGSEEKGPEVR [_SNEEGSEEK(Acetyl (K))GPEVR_]” showed a collision cross section under setting [14] of 400.7 ± 1 Å². Sequence “GVPRGVHLGSQGLQR [_GVPR(Methyl (R))GVHLGSQGLQR_]” showed a collision cross section under setting [18] of 492.74 ± 2.1 Å². As for “TTGFYSGFSEVAEKR [_TTGFYSGFSEVAEK(hydroxyisobutyryl)R_]”, the collision cross section is 444.06 ± 0.8 Å² under setting [3] and 515.51 ± 0.49 Å² under setting [4].

The sequence “SGRGGNFGFGDSR [_SGR(Methyl (R))GGNFGFGDSR_]” registered a collision cross section under setting [18] of 452.71 ± 3.1 Å². Sequence “AGPNASIISLKSDK [_AGPNASIISLK(Butyryl)SDK_]” came in with a collision cross section under setting [17] of 413.93 ± 1.1 Å². In turn, ALASIDSKLNQAK [_ALASIDSK(Formyl)LNQAK_] yielded a collision cross section under setting [19] of 395.38 ± 0.55 Å².

Sequence LDHLAEKFR [_LDHLAEK(Formyl)FR_] gave a collision cross section under setting [19] of 364.92 ± 0.89 Å² and a collision cross section (charge state: 3, modification: Formyl) of 435.6 ± 2.1 Å².

On to “ITESVAETAQTIKK [_ITESVAET(HexNAc (ST))AQTIKK_]”, for which the collision cross section (charge state: 2, modification: HexNAc (ST)) turned out to be 456.71 ± 0.56 Å² and the collision cross section (charge state: 3, modification: HexNAc (ST)) is recorded as 499.78 ± 0.18 Å².

Regarding “STGLELETPSLVPVKK [_STGLELETPSLVPVK(Acetyl (K))K_]”, the collision cross section under setting [14] is on record as 431.84 ± 2.2 Å² and the collision cross section under setting [20] is listed as 518.73 ± 1.1 Å². Regarding “LDEKENLSAK [_LDEK(hydroxyisobutyryl)ENLSAK_]”, the collision cross section under setting [3] turned out to be 373.33 ± 0.28 Å². “VDIDVPDVNIEGPDAKLK [_VDIDVPDVNIEGPDAK(Trimethyl (K))LK_]”: the collision cross section reads like this: (charge state: 2, modification: Trimethyl (K)) 470.5 Å²; under setting [21], 538.87 ± 1.8 Å².

Turning to “VGLQVVAVKAPGFGDNR [_VGLQVVAVK(Gluratylation)APGFGDNR_]”, the collision cross section is given as 447.64 ± 0.95 Å² under setting [15] and 510.32 ± 1 Å² under setting [5].

For the sequence “PSVGSQSNQAGQGKR [_PSVGSQSNQAGQGK(Butyryl)R_]”, the collision cross section reads like this: under setting [17], 416.92 ± 1.1 Å²; (charge state: 3, modification: Butyryl) 475.14 ± 7.3 Å². In the case of “LEEVTGKLQVAR [_LEEVTGK(GlyGly (K))LQVAR_]”, the collision cross section by setting is: under setting [6], 407.08 ± 0.86 Å²; under setting [7], 463.74 ± 1.1 Å². As to SGFGKFER [_SGFGK(Succinyl)FER_], under setting [8], the collision cross section turned out to be 336.55 ± 1.3 Å². In the case of “VPTTEKPTVTVNFR [_VPTTEK(Trimethyl (K))PTVTVNFR_]”, the collision cross section under setting [21] came out at 499.21 ± 1.6 Å². “GTITVSAQELKDNR [_GTITVSAQELK(Dimethyl (K))DNR_]”: the collision cross section under setting [1] worked out at 437.65 ± 1.3 Å² and the collision cross section under setting [2] was found to be 475.47 ± 2.4 Å².

GEVQVSDKER [_GEVQVSDK(Succinyl)ER_] had a collision cross section under setting [8] of 361.33 ± 0.24 Å².

Sequence GFPGIQGRK [_GFP(Hydroxyproline)GIQGRK_] gave a collision cross section (charge state: 2, modification: Hydroxyproline) of 339.07 Å² and a collision cross section (charge state: 3, modification: Hydroxyproline) of 407.07 Å². Turning to “SGFGKFER [_SGFGK(hydroxyisobutyryl)FER_]”, the collision cross section under setting [3] was determined as 340.58 ± 1.9 Å².

“TEVLSPNSKVESK [_TEVLSPNSK(Methyl (K))VESK_]”: the collision cross section came out at 412.51 ± 2.6 Å² under setting [11] and 437.62 ± 4.3 Å² under setting [12].

As to “DSSPTTNSKLSALQR [_DSSPTTNSK(Acetyl (K))LSALQR_]”, the collision cross section runs as follows: under setting [14], 430.6 ± 0.81 Å²; under setting [20], 495.74 ± 2.2 Å².

Turning to “SLGEPAAGEGSAKR [_SLGEPAAGEGSAK(GlyGly (K))R_]”, the collision cross section amounted to 411.44 ± 1.9 Å² under setting [6] and 486.35 ± 2.8 Å² under setting [7]. Turning to “TFGKAAGPSLSHTSGGTQSK [_TFGK(Acetyl (K))AAGPSLSHTSGGTQSK_]”, the collision cross section is, setting by setting: under setting [14], 486.77 ± 4.6 Å²; under setting [20], 516.14 ± 6 Å². The sequence VELCSFSGYK [_VELCSFSGY(Nitro (Y))K_] returned a collision cross section under setting [13] of 364.52 ± 0.72 Å².
